# Assay results reported in PMC4585734, “RBM45 homo-oligomerization mediates association with ALS-linked proteins and stress granules” (Scientific Reports, 2015).
# Changes are numbered by the printed parent chain. Values joined by “and” are separate entries in the source; they are usually repeats but may differ in a detail not shown here. Equal values may be shown once.
# B1: FLAG-tagged RBM45 (full-length FLAG-RBM45) (natural protein, human, UniProt Q8IUH3-3 1-474, looked up)
# chain: MDEAGSSASGGGFRPGVDSLDEPPNSRIFLVISKYTPESVLRERFSPFGDIQDIWVVRDKHTKESKGIAFVKFARSSQACRAMEEMHGQCLGPNDTKPIKVFIAQSRSSGSHRDVEDEELTRIFVMIPKSYTEEDLREKFKVYGDIEYCSIIKNKVTGESKGLGYVRYLKPSQAAQAIENCDRSFRAILAEPKNKASESSEQDYYSNMRQEALGHEPRVNMFPFEQQSEFSSFDKNDSRGQEAISKRLSVVSRVPFTEEQLFSIFDIVPGLEYCEVQRDPYSNYGHGVVQYFNVASAIYAKYKLHGFQYPPGNRIGVSFIDDGSNATDLLRKMATQMVAAQLASMVWNNPSQQQFMQFGGSSGSQLPQIQTDVVLPSCKKKAPAETPVKERLFIVFNPHPLPLDVLEDIFCRFGNLIEVYLVSGKNVGYAKYADRISANDAIATLHGKILNGVRLKVMLADSPREESNKRQRTY
# notes: pcDNA3; band of 56.6 kD; also called 3xFLAG-RBM45; FLAG-RMB45; source: HEK293, transfected or stably expressing, in lysate or in cells; not shown: 3xFLAG, N-terminal, kept
# B2: truncated HA-RBM45 variant (107–474) that lacks RRM1 (domain or fragment, human, UniProt Q8IUH3-3 107-474, looked up)
# chain: RSSGSHRDVEDEELTRIFVMIPKSYTEEDLREKFKVYGDIEYCSIIKNKVTGESKGLGYVRYLKPSQAAQAIENCDRSFRAILAEPKNKASESSEQDYYSNMRQEALGHEPRVNMFPFEQQSEFSSFDKNDSRGQEAISKRLSVVSRVPFTEEQLFSIFDIVPGLEYCEVQRDPYSNYGHGVVQYFNVASAIYAKYKLHGFQYPPGNRIGVSFIDDGSNATDLLRKMATQMVAAQLASMVWNNPSQQQFMQFGGSSGSQLPQIQTDVVLPSCKKKAPAETPVKERLFIVFNPHPLPLDVLEDIFCRFGNLIEVYLVSGKNVGYAKYADRISANDAIATLHGKILNGVRLKVMLADSPREESNKRQRTY
# notes: source: HEK293, transfected, in cells; not shown: 2xHA, N-terminal, kept
# B3: HA-tagged full-length RBM45 (natural protein, human, UniProt Q8IUH3-3 1-474, looked up)
# chain: B1 chain
# notes: pcDNA3; also called HA-RBM45; HA-RBM45 wild-type; source: HEK293, transfected, in lysate or in cells; not shown: 2xHA, N-terminal, kept
# B4: HA-RBM45 NLS M2/3 double mutant (natural protein, human, UniProt Q8IUH3-3 1-474, looked up)
# chain: B1 chain with R454A, K456A, R464A, K469A, R470A, R472A
# notes: also called NLS-M2/3 mutant; HA-RBM45-NLS mutant; source: HEK293, transfected, in lysate or in cells; not shown: 2xHA, N-terminal, kept
# B5: HA-RBM45 deletion construct D2 (Δ230–234) (natural protein, human, UniProt Q8IUH3-3 1-474, looked up)
# chain: MDEAGSSASGGGFRPGVDSLDEPPNSRIFLVISKYTPESVLRERFSPFGDIQDIWVVRDKHTKESKGIAFVKFARSSQACRAMEEMHGQCLGPNDTKPIKVFIAQSRSSGSHRDVEDEELTRIFVMIPKSYTEEDLREKFKVYGDIEYCSIIKNKVTGESKGLGYVRYLKPSQAAQAIENCDRSFRAILAEPKNKASESSEQDYYSNMRQEALGHEPRVNMFPFEQQSEKNDSRGQEAISKRLSVVSRVPFTEEQLFSIFDIVPGLEYCEVQRDPYSNYGHGVVQYFNVASAIYAKYKLHGFQYPPGNRIGVSFIDDGSNATDLLRKMATQMVAAQLASMVWNNPSQQQFMQFGGSSGSQLPQIQTDVVLPSCKKKAPAETPVKERLFIVFNPHPLPLDVLEDIFCRFGNLIEVYLVSGKNVGYAKYADRISANDAIATLHGKILNGVRLKVMLADSPREESNKRQRTY
# notes: source: HEK293, transfected, in lysate or in cells; not shown: 2xHA, N-terminal, kept
# B6: HA-RBM45 deletion construct D1 (Δ212–216) (natural protein, human, UniProt Q8IUH3-3 1-474, looked up)
# chain: MDEAGSSASGGGFRPGVDSLDEPPNSRIFLVISKYTPESVLRERFSPFGDIQDIWVVRDKHTKESKGIAFVKFARSSQACRAMEEMHGQCLGPNDTKPIKVFIAQSRSSGSHRDVEDEELTRIFVMIPKSYTEEDLREKFKVYGDIEYCSIIKNKVTGESKGLGYVRYLKPSQAAQAIENCDRSFRAILAEPKNKASESSEQDYYSNMRQEPRVNMFPFEQQSEFSSFDKNDSRGQEAISKRLSVVSRVPFTEEQLFSIFDIVPGLEYCEVQRDPYSNYGHGVVQYFNVASAIYAKYKLHGFQYPPGNRIGVSFIDDGSNATDLLRKMATQMVAAQLASMVWNNPSQQQFMQFGGSSGSQLPQIQTDVVLPSCKKKAPAETPVKERLFIVFNPHPLPLDVLEDIFCRFGNLIEVYLVSGKNVGYAKYADRISANDAIATLHGKILNGVRLKVMLADSPREESNKRQRTY
# notes: also called HA-RBM45 D1 mutant; source: HEK293, transfected, in lysate or in cells; not shown: 2xHA, N-terminal, kept
# Target: the molecule itself
# Assay: cross-linking; in vivo DSS cross-linking of live HEK293 stably expressing FLAG-RBM45, DSS 0 to 5000 uM; denaturing SDS-PAGE and immunoblot
row,Protein,stoichiometry N
1,B1,2 and 5

# Target: the molecule itself
# Assay: cross-linking; in vivo DSS cross-linking (1 mM DSS for 10 minutes, room temperature, PBS) of HEK293 expressing HA-RBM45 constructs; SDS-PAGE and immunoblot
row,Protein,stoichiometry N
1,B2,5
2,B3,5 and 10
3,B4,5
4,B5,5
5,B6,5
